This note sets out measurements from the DeepSol protein solubility set.

The nature of the data set: soluble on expression in E. coli; label from the status in PepcDB or PDB records.
In the case of “MKGDVSPIFSPKHLQFKRPTLWRYGRIQKISIMSSKRSSPTGKLRLLSFLRDLLEDESNSDIIYWFDKSESVFKMSKPHKVAELWGAATGNPGMNYDKMSRGLRYFYTNNTLEKVPGKDARYRFIDSPRHSFLDFSMKTELETPVKRTPLFNISNLISDFEVSNNSLTSSPTSSASSVEPSSPTTTESSLDPSQFVQLTQNLVQFNTFMSQNPMFHTLPLPTQLQVFFNFKTIFPSLFPALV”, the “soluble on expression in E. coli” value is given as “not soluble”.

For “MKGLYPESVISRFDFAVTEDNKIKMLEFNSDTPTFIVECFQMNGKVCGNLGYDDPNSDQERLLSSGVTKAVMEATKGLDNPNVVFTAHHEHIEDWNTTMYLSQLCHVENKVVPMSELRITKDALVDKDGAKIDVLYRQTYPIEDLIEDQDPETGDLVGVELLQLVKAGKLFIINPLSAFLLQPKSIQCLIWGLAEEEAFYTNEEQQWIKEYMLPTYLEPDLFLGKGSFVQKPSFGREGDTITIRDKDENIMLQNAHQTYKASLPIFQKYIELPVVSLETEKGIEKLSYVFGSFLIAGKASSIGIRAGEKITGNESYYLPVGIKRRGKND”, the “soluble on expression in E. coli” value is listed as “not soluble”.

As for “MKGYSMAKCLTLNTHSWMEVNALKKLFDLAEHIFREKYDIICLQEVNQSISSPLAKSSPNYHPIEGTPALHQDNFALQLVHYLNLQGLHYHWTWAYNHIGYSKYHEGVAILSLKPLKPEDILVSAVDDETDYHTRRALVAETTLNDKVVTVVSLHFSWFEKGFAEEWKRLETTLLEVETPLLLMGDFNNPTGNQGYELVLNSPLALKDSHQIANHVFGDHTIMADIDGWEGNKKALKVDHIFTSEDLSISSSQVVFEGGEAPVVSDHYGLEITMDF”, the “soluble on expression in E. coli” value was “not soluble”.

For “MKHEIKHDPAFRALTPKWHHGYRFQYEPAQKAHVVLYPEGMIKLNDSASLIGGLIDGERTIAAIIAELQREFPNIPELGMDVDDFMKVAKEKYWIDLV”, the “soluble on expression in E. coli” value is recorded as “not soluble”.

As for “MKHHHHHHPMVKEYKTITQIAGPLIFVEKTEPVGYNEIVNIKMGDGTVRRGQVLDSSADIVVVQVFEGTGGLDKDCGVIFTGETLKLPASVDLLGRILSGSGEPRDGGPRIVPDQLLDINGAAMNPYARLPPKDFIQTGISTIDGTNTLVRGQKLPIFSASGLPHNEIALQIARQASVPGSESAFAVVFAAMGITNEEAQYFMSDFEKTGALERAVVFLNLADDPAVERIVTPRMALTAAEYLAYEHGMHVLVILTDITNYAEALRQMGAARNEVPGRRGYPGYMYTDLATLYERAGIVKGAKGSVTQIPILSMPGDDITHPIPDLSGYITEGQIVVARELHRKGIYPPINVLPSLSRLMNSGIGAGKTREDHKAVSDQMYAGYAEGRDLRGLVAIVGKEALSERDTKFLEFADLFEDKFVRQGWNENRTIEDTLEIGWQILTHLPENQLGRIDNKYIQKYHPAHRKAK”, the “soluble on expression in E. coli” value was “soluble”.

For “MKHSLPDLPYDYGALEPHINAQIMQLHHSKVHAAYVNNLNVTEEKYQEALAKGDVTAQIALQPALKFNGGGHINHSIFWTNLSPNGGGEPKGELLEAIKRDFGSFDKFKEKLTAASVGVQGSGWGWLGFNKERGHLQIAACPNQDPLQGTTGLIPLLGIDVWEHAYYLQYKNVRPDYLKAIWNVINWENVTERYMACKK”, the “soluble on expression in E. coli” value is “soluble”.

Take “MKIAAIYTQSVGPLPDGEIRFENDWSGEIESNVLITGPNGCGKSTLLRAISLLWRAFGHWLGTGTRLNIKDESYTWFYRWDASCAMILDSFSPKSEDQIGLFLGSEAFLVQLKEKYPQVYWLGETVSRTKGTTPETTVFTSSEHFFLPYKNWWSHWSSQYQRLVLKGPSVDMPNLVYLDAEARRWVRPQKDIGSLSPDDSTQAWLATYEVNDNWKGQLESSLFNMKATMPGEYPEMIATLNQFFSGKRIEAEIHPGQRQRVLLDSGNDHSLDALSSGEHQVLIMLFTVQRWLQPGGVVLIDEPDLHLHPSLISPLLASIENIVARKNGQLVMTSHATDIWQRYDNMGLRIDLTDGKDAENGQRLEHHHHHH”: the “soluble on expression in E. coli” value is given as “soluble”.

For the sequence “MKIAFIGEAVSGFGGMETVISNVIHTFENSSPKINCEMFFFCRNDKMDKAWLKEIKYAQSFSNIKLSFLRRAKHVYNFSQWLKETSPDIVICIDVISCLYANKARKKSGKHFTIFSWPHFSLDHKKHAECITYADYHLAISSGIKEQIMARGISAQDISVVYNPVSIKTVIVPPPERDKPAVFLYVGRLKFEGQKRVKDLFDGLARTTGEWQLHIIGDGSDFEKCQAYSRELGIEQRVIWYGWQSAPWQVVQQKIKNVTALLLTSAFEGFPMTLLEAMSYGIPCISSDCMSGPRDMIKPGLNGELYTPGAIDDFVGHLNRVISGEVKYQHDIIPGTIERFYDVLYFKNFNNAIFSKLQK”, the “soluble on expression in E. coli” value is on record as “not soluble”.

Take “MKIAIFSKLTIKEDEIRKKLGNYDVDIFPPIKRGDLTSEKIFDYDIIGIIDGCFLQSTAVAHREILKVIENNITVFGAGSMGALRASELDTCGMIGVGLVYNLYKNGIISDDDEVAVTFDDNLNQITFSMISFREMIKNALNEKIIDEDDSKRLINSGKELYYPLRTFENVIEKSKISGEKREVLEKFLKNQPDIKRNDAFEMLEEIIKYIEKQ”: the “soluble on expression in E. coli” value was “not soluble”.

With “MKIAIINMGNNVINFKTVPSSETIYLFKVISEMGLNVDIISLKNGVYTKSFDEVDVNDYDRLIVVNSSINFFGGKPNLAILSAQKFMAKYKSKIYYLFTDIRLPFSQSWPNVKNRPWAYLYTEEELLIKSPIKVISQGINLDIAKAAHKKVDNVIEFEYFPIEQYKIHMNDFQLSKPTKKTLDVIYGGSFRSGQRESKMVEFLFDTGLNIEFFGNAREKQFKNPKYPWTKAPVFTGKIPMNMVSEKNSQAIAALIIGDKNYNDNFITLRVWETMASDAVMLIDEEFDTKHRIINDARFYVNNRAELIDRVNELKHSDVLRKEMLSIQHDILNKTRAKKAEWQDAFKKAIDL”, the “soluble on expression in E. coli” value is “soluble”.

For “MKIDRLKTDLAKAREKAAEWQARVRDLEKQITEQENLEILQVVRSVAASPEELRGLLDMIRGAKMPMAGTARTFENMDKEEI”, the “soluble on expression in E. coli” value is “not soluble”.

As to “MKIFAVVVTYNRLALLKKVIDLLKRQTRQLDSIVIVNNGSTDGTKEWLEQEKNITLINQSNSGGAGGFETGVKYAYENEADWIWMMDDDVFPNIDCLEKLLGWTSISQCIQPRRYYSDDVEVNFEQWLDPITYSKFGYWQEKSFNNGKKFCAINVGCFEGMFVSKSIVNKIGFPDKRFFIAEDDTIYGFAASFYTNVILVSDAIMVRARRSSDRSVSPMYTYYACRNFHLVYESLNLLLDKKNRFLYIKYIYQFVHQIYLSIFLYDNKMKHLISVFRGFYDCFRKKNGATYLEHHHHHH”, the “soluble on expression in E. coli” value is given as “not soluble”.

Consider “MKIFLENLYHSDCYFLPIRDNQQVLVGVELITHFSSEDGTVRIPTSRVIAQLTEEQHWQLFSEQLELLKSCQHFFIQHKLFAWLNLTPQVATLLLERDNYAGELLKYPFIELLINENYPHLNEGKDNRGLLSLSQVYPLVLGNLGAGNSTMKAVFDGLFTRVMLDKSFIQQQITHRSFEPFIRAIQAQISPCCNCIIAGGIDTAEILAQITPFDFHALQGCLWPAVPINQITTLVQR”, for which the “soluble on expression in E. coli” value is “not soluble”.

Take “MKIFVCEDDQRQREHMVSIIKNYIMIEEKPMELALATNDPYEVLEQSKELNDIGCYFLDIQLEADMNGIKLASEIRKHDPVGNIIFVTSHSELTYLTFVYKVAAMDFIFKDDPSELKMRIIDCLETAHTRLKLLSKESNVDTIELKRGSNSVYVQYDDIMFFESSTKSHRLIAHLDNRQIEFYGNLKELAQLDERFFRCHNSFVINRHNIESIDSKERIVYFKNGENCFASVRNVKKI”: the “soluble on expression in E. coli” value was “not soluble”.

In the case of “MKIGIIAAMPEELAYLVQHLDNTQEQVVLGNTYHTGTIASHEVVLVESGIGKVMSAMSVAILADHFQVDALINTGSAGAVAEGIAVGDVVIADKLAYHDVDVTAFGYAYGQMAQQPLYFESDKTFVAQIQESLSQLDQNWHLGLIATGDSFVAGNDKIEAIKSHFPEVLAVEMEGAAIAQAAHTLNLPVLVIRAMSDNANHEANIFFDEFIIEAGRRSAQVLLAFLKALD”, the “soluble on expression in E. coli” value is “soluble”.

For “MKIISEGETKLMVPEESTLSKKDTVFYNPVMETNRDISVSVVQSFLDDFKRDEFLMCDPLGGSGARGIRYAKELKFNGDLKVSIGDINPSAVKMIKENLKLNELENVEVFHEDANVLLSKNFKVFNVVDLDPFGSPVPYLDSGIRASLTKGGLLCMTATDTAVLCGAYRKTCIRKYNAVPLKGDKELAVRLMIGYAVKMASKYDIGLKPIFSHVTDHYARTFMVTERGAGKADSAIENLGYIRQDSEQKSFKTFEEGSEKGYAGPFYLGEISDKNIVQNALNTAKTRNYSKRAVNILEMISRESEINQVGCFDIHELCSFIKKLVPPVNDIMENLKENGFKVTRVHYNPYGLKTDAELSDLVVLISEYHSKKYLEHHHHHH”, the “soluble on expression in E. coli” value was “not soluble”.

With “MKILLIEDNQRTQEWVTQGLSEAGYVIDAVSDGRDGLYLALKDDYALIILDIMLPGMDGWQILQTLRTAKQTPVICLTARDSVDDRVRGLDSGANDYLVKPFSFSELLARVRAQLRQHHALNSTLEISGLRMDSVSHSVSRDNISITLTRKEFQLLWLLASRAGEIIPRTVIASEIWGINFDSDTNTVDVAIRRLRAKVDDPFPEKLIATIRGMGYSFVAVKK”, the “soluble on expression in E. coli” value is recorded as “soluble”.

Take “MKINRHILDNGLRLVHSQDESTQMVALNVLYNVGARDEHPEHTGFAHLFEHLMFGGSVNIPDYDMPLQLAGGENNAWTNNDITNYYLTVPRQNVETGFWLESDRMLSLDFSERSLEVQRGVVMEEFKQRCLNQPYGDVGHLLRPLAYRAHTYQWPTIGKDLSHIANATLEEVKAFFFRFYAPNNAVLAVTGNISFEEAVALTEKWFGPIPRREVPQRNLPQEPEQTEERRLTVERNVPLDSLFMAYHMCSHDHPDYYAFDILSDLLSNGRSSRLNQRLVQQKQLFSSIDAYISGSVDAGLFHISGKPAAGVSLEQAEAAVREELERLQQEPVDEQELEKVKNKFESTQIFGNINYLNVATNLAWFELLGRAEDMEKEVERYRAVTAGQLQKVAQSAFRKENGVILYYKKQIS”: the “soluble on expression in E. coli” value is “not soluble”.

As to “MKIPDLTNYEHLIGGLCGGVTSTVVCHPFDLLKIRFSANEGSSLRPQYSSYADAVRKIVRVEGVRGLYQGWTPSLIGASLSWGLYFQWYNSLRTKIYENFSTGSKLANNLISGCISGSAIMCITNPIWLTKTRLCLQYENQQSKKYAGMMDCLKKTVKQEGFFGLYRGFVTGVIGTTHGAVQIAAYSWIIDKRCQSQGLPKDSFLSQTDYVIASSTSKVLATTITFPYQVLRTRMQDHNTDSRGVWKTTLKTIHNEGIGGLWKGCLIANVRQLPAAVVTFLTYENVKRLVGMTKQI”, the “soluble on expression in E. coli” value is on record as “not soluble”.

Regarding “MKIRQEKPAEYQAVERLTYQAFKELNLTENWRPTEHFIVHLLRESADFIPELSLVSETDQGKLTGHIMSSKAKLRLPDHTEKAVLTVGPLSVHPEAQNTGVGSALIKHSVQKAKELGIGGLIILGHPTYYTKFGFVPATTFQITLPEKETSEALLALELLPGYFGTSGGEWHFSTCFAYPETHPAELEAFEAELGINE”, the “soluble on expression in E. coli” value is on record as “not soluble”.

Regarding “MKITDLRCAVIGKHPIVRIVTDEGLHGLGEVEFTKTYLKPFVLHFREALIGEDPTDVERVMLKIRQRGSFKPYGAAVSAIEHALWDIAGKAAGVPVYKLLGGKVRDKVRVYNGSIRRKRAGDRPEDYAADVKWMMEQPQNFFMVKQGISFHSNMKDSIEGFHYGVTQKKAGYHGAMDQGVISERGFNHMLDCVIAMKEVLGDKVSLALDCGPGWMLPDAIKFARAVEKYNLMWLEDMLTGDYVPWVNPQAYRELTTSTSTPIHTGEQIYLRHNFKELIETQAVRVIGPDPADIGGIAELKWVAEHAYMHSILMAPHGTANGLLGLGALINVCATLPANYVAFEYPSASDPWWEDLVIGLPAQIVRDSMVDLLEAPGLGLDIDAEAARKYLGEEDAGFFD”, the “soluble on expression in E. coli” value is “not soluble”.
